Tests used:
[1] = molecular target: PTDH-PCNA1_(G108C)-PdR (Pseudomonas stutzeri | Sulfolobus solfataricus | Pseudomonas putida); experiment: SEC; non-denatured fusion proteins, masses estimated against globular protein standards
[2] = molecular target: PTDH-PCNA1_(G108C)-PdR (Pseudomonas stutzeri | Sulfolobus solfataricus | Pseudomonas putida); experiment: dynamic light scattering; diameters of the PTDH-fused proteins compared with their counterparts without PTDH fusion
[3] = molecular target: PTDH-PCNA3_(R112C/T180C)-P450cam (Pseudomonas stutzeri | Sulfolobus solfataricus | Pseudomonas putida); experiment: SEC; non-denatured fusion proteins, masses estimated against globular protein standards
[4] = molecular target: PTDH-PCNA3_(R112C/T180C)-P450cam (Pseudomonas stutzeri | Sulfolobus solfataricus | Pseudomonas putida); experiment: dynamic light scattering; diameters of the PTDH-fused proteins compared with their counterparts without PTDH fusion
[5] = molecular target: the molecule itself; experiment: SEC; non-denatured fusion proteins, masses estimated against globular protein standards

Q: With PTDH-PCNA1_(G108C)-PdR as the molecule, how does the stoichiometry N [1] read?
A: 2

Q: And the stoichiometry N [2]?
A: 2

Q: How did the stoichiometry N [3] turn out when PTDH-PCNA3_(R112C/T180C)-P450cam was run?
A: 2

Q: What about the stoichiometry N [4] of the same molecule?
A: 2

B1: PTDH-PCNA2_(L171C)-PdX (other)
chain: MLPKLVITHRVHDEILQLLAPHCELMTNQTDSTLTREEILRRCRDAQAMMAFMPDRVDADFLQACPELRVVGCALKGFDNFDVDACTARGVWLTFVPDLLTVPTAELAIGLAVGLGRHLRAADAFVRSGEFQGWQPQFYGTGLDNATVGILGMGAIGLAMADRLQGWGATLQYHARKALDTQTEQRLGLRQVACSELFASSDFILLALPLNADTQHLVNAELLALVRPGALLVNPCRGSVVDEAAVLAALERGQLGGYAADVFEMEDWARADRPRLIDPALLAHPNTLFTPHIGSAVRAVRLEIERCAAQNIIQVLAGARPINAANRLPKAEPAACMKAKVIDAVSFSYILRTVGDFLSEANFIVTKEGIRVSGIDPSRVVFLDIFLPSSYFEGFEVSQEKEIIGFKLEDVNDILKRVLKDDTLILSSNESKLTLTFDGEFTRSFELPLIQVESTQPPSVNLEFPFKAQLLTITFADIIDELSDLGEVLNIHSKENKLYFEVIGDCSTAKVELSTDNGTLLEASGADVSSSYGMEYVANTTKMRRASDSMELYFGSQIPLKLRFKLPQEGYGDFYIAPRADSKVVYVSHDGTRRELDVADGVSLMQAAVSNGIYDIVGDCGGSASCATCHVYVNEAFTDKVPAANEREIGMLESVTAELKPNSRLSCQIIMTPELDGIVVDVPDRQW
Q: For B1, which “stoichiometry N” value [5] is on record?
A: 2

Source: article PMC4346803, “Supramolecular protein assembly supports immobilization of a cytochrome P450 monooxygenase system as water-insoluble gel” (Scientific Reports, 2015)
